Measured values reported in patent publication US12637685B2, “Method for rapid genome modification in recalcitrant plants” (KWS SAAT SE & Co. KGaA, priority 2020, dated 2026).

B1: RBP8: artificial regeneration booster protein, SEQ ID NO: 39 (CDS SEQ ID NO: 27), construct pABM-BdEF1_RBP8 (protein)
chain: MVSKGEEVIKEFSGSTRWNPTAEQVKVLREIYYRAGLRTPSADQIRQISSQLKRYGKVEGKNVFYWFQNHKARERQKKRLSTVGSAGSAAGSGEFRHVKTLPLFPLHNNEDSGSGLDLDLNLELRLSATAAATSGSQRASALDLDLELRLGFALGNESCGLHDN
B2: RBP2: artificial regeneration booster protein, SEQ ID NO: 33 (CDS SEQ ID NO: 21), expressed from construct pABM-BdEF1_RBP2 (protein)
chain: MESGSGTAAGSGYVYRQSGSTRWNPTAEQLSLLKELYYRNGIRTPSADQIRQISARLSRYGKIEGKNVFYWFQNHKARERQKKRLSTVGCDPALIEMGNVASLEFGTESALESLSSGPSSELREAPTRKFYEKKTVGENSTIINPVEQNCTLSCGTSQEFQYAVDSRRVMKAMEEKQATDDEPDGNKWTESNRHVKTLPLFPLHNNEDQTLIKSDKEIYCLGSCEKKMDLSPLGHSGSQRASALDLCLSLGNESCGLHDN
B3: RBP7: artificial regeneration booster protein, SEQ ID NO: 38 (CDS SEQ ID NO: 26), construct pABM-BdEF1_RBP7 (protein)
chain: MVSKGEEVIKEFSGSTRWNPTAEQLSLLKELYYRNGIRTPSADQIRQISARLSRYGKIEGKNVFYWFQNHKARERQKKRLSTVGCDPALIEMGNVASLEFGTESALESLSSGPSSELREAPTRKFYEKKTVGENSTIINPVEQNCTLSCGTSQEFQYAVDSRRVMKAMEEKQATDDEPDGNKWTESNRHVKTLPLFPLHNNVETLPLFPEDSGSLDLELELGFASGGSAGSVDTLPLFPREAAGSGEFATAAATSGSQRASALDLCLSLGNESCGLHDN
B4: RBP5: artificial regeneration booster protein, SEQ ID NO: 36 (CDS SEQ ID NO: 24), construct pABM-BdEF1_RBP5 (protein)
chain: MVSKGEEVIKEFSGSTRWNPTAEQLSLLKELYYRNGIRTPSADQIRQISARLSRYGKIEGKNVFYWFQNHKARERQKKRLSTVGCGSAGSAAGSGEFRHVKTLPLFPLHNNVETLPLFPEDSGSLDLELELGFASATAAATSGSQRASALDLCLSLGNESCGLHDN

Legend:
Format in all cases: cell-based
[1] = system: CRISPR target m7GEP1 (maize HMG13 gene) in corn A188 immature embryos; experiment: SDN-1 efficiency after co-delivery of TSA with editing plasmids, target m7GEP1, Taqman ddPCR (Example 18); settings: 15 ng TSA co-bombarded, 48 hours after bombardment, 6 repeats
Experimental: (§1) The amounts of TSA used for a bombardment with 100 μg of gold particles (approximately, 4.0-5.0×10^7 gold particles size of 0.6 micron) is 15 ng. Specifically, the plasmid DNA and TSA were co-coated onto gold particles for bombardment as follows. For 10 shots, 100 microlite (μl) of 10 mg/ml 0.6 μm gold particle in 50% (v/v) glycerol particle stock solution (1.0 mg of the gold particles in total for 10 shots, and 100 μg per shot) was pipetted into a clear low-retention microcentrifuge tube. Sonicate for 15 seconds to suspend the gold particles. While vortex at a low speed, add the following in order: • 1.0 μg of pGEP1054 (FIG. 15), 1.5 μg of pGEP842 (FIG. 2) or pGEP1067 (FIG. 32) • 100 μl of 2.5 M CaCl2 (pre-cold on ice) • 40 μl of 0.1 M cold spermidine Close the lid and vortex the tube for 5 minutes at room temperature and spin down the DNA-coated gold particles. After washing in 1000 μl of 100% ethanol (pre-cold at −20° C.) for two times, the pellet was resuspended in 120 μl of 100% ethanol. Finally, 150 ng of TSA was added into the resuspended gold particle solution carefully. While vertexing at a low speed, pipet 10 μl of TSA co-coated gold particles with a wide open 20 μl tip from the tube onto the center of the macrocarrier evenly. Since the particles tend to form clumps at this point, get the gold particles onto the macrocarriers as soon as possible. […]

[2] = system: CRISPR target m7GEP22 (maize HMG13 gene) in corn A188 immature embryos; experiment: SDN-1 efficiency after co-delivery of TSA with editing plasmids, target m7GEP22, Taqman ddPCR (Example 18); settings: 15 ng TSA co-bombarded, 48 hours after bombardment, 6 repeats
Experimental: as §1

[3] = system: maize HMG13 gene in maize A188 immature embryos; experiment: Genome editing SDN-1 in regenerated T0 plants of maize A188 (Example 5); settings: for Total SDN-1: T0 events; for Bi-SDN-1: T0 events with bi-allelic SDN-1; for Mon-SDN-1: T0 events with mono-allelic SDN-1; for % SDN-1/IE: per immature embryo initially used; for % SDN-1/Event: per regenerated T0 event; for Total Events: regenerated T0 events, co-bombarded with pGEP837 and pGEP842
Experimental: Specifically, construct pGEP837 (SEQ ID NO: 52, FIG. 1) and the crRNA construct pGEP842 (SEQ ID NO: 53, FIG. 2) were co-bombarded with the different boosters as indicated into maize A188 immature embryos by particle bombardment. For each bombardment (shot), 100 ng of plasmid pGEP837 were cocoated with 150 ng of plasmid pGEP842 and 100 ng each of different boost constructs onto 100 μg of 0.4 μm gold particles using calcium-spermidine method. Three bombardments (shots) per sample plate were performed.
(§2) After bombardment the embryos were remained on the osmotic medium (N60SM) for another 16-20 hours. The embryos were transferred from the osmotic medium onto embryogenic callus induction medium (e.g. N6_5Ag) in a petri dish plate (100×25 mm) with scutellum-face-up, at a density of 12-15 embryos per plate. The embryos were incubated at 27° C. in dark for the embryogenic callus induction. After embryogenic callus induction in N6_5Ag medium for 10-14 days the induced calluses were transferred onto embryo maturation medium MRM1 in petro dish (100×25 mm), and cultured at 27° C. in dark for 10 days, and then at 25° C., weak light (20-50 μmol m^−2 s^−1) for 2-4 days. The mature somatic embryos were then transferred onto MSO medium (see below) in phytotray for plant outgrowth and further development for 5-7 days. A 5-10 mm leaf tip from each of the leaves of a T0 plant is collected for DNA extraction. The targeted genome editing SDN-1 in the regenerated T0 plants are screened by TaqMan real-time PCR (qPCR), and further conformed by Sanger sequencing trace decomposition analysis.

[4] = system: maize HMG13 gene in immature embryos of maize recalcitrant elite 4V-40290; experiment: Genome editing SDN-1 in T0 plants of elite 4V-40290 (Example 13); settings: for Bi-SDN-1 / Mon-SDN-1 / Total SDN-1: T0 events; for % SDN-1/IE: per immature embryo initially used; for % SDN-1/Event: per regenerated T0 event; for Total Event: regenerated T0 events, co-bombarded with pGEP837 and pGEP842
Experimental: as §2
(§3) The workflow was as described in Example 6. For immature embryo isolation, osmotic treatment, and bombardment, please see the description in Example 1. Specifically, genome editing constructs pGEP837 (SEQ ID NO: 52, FIG. 1) and pGEP842 (SEQ ID NO: 53, FIG. 2) were co-bombarded with the different boosters as indicated into the immature embryos of elite 4V-40290 by particle bombardment. For each bombardment (shot), 100 ng of plasmid pGEP837 and 150 ng of plasmid pGEP842 were cocoated with 100 ng each of different boost constructs onto 100 μg of 0.4 μm gold particles using calcium-spermidine method. Three bombardments (shots) per sample plate were performed. The bombarded embryos were transformed onto the embryogenic callus induction medium 16-20 hours after bombardment.
(§4) For plant regeneration, and genome editing SDN-1 screen and conformation in regenerated T0 plants please see Example 5 and Example 9.

[5] = system: maize HMG13 gene in immature embryos of maize recalcitrant elite 2V-20195; experiment: Genome editing SDN-1 in T0 plants of elite 2V-20195 (Example 12)
Experimental: as §2
as §3, with “embryos of maize elite 2V-20195” for “embryos of elite 4V-40290”, “maize elite 2V-20195 by particle” for “of elite 4V-40290 by particle”, “pGEP842 were co-coated with 100” for “pGEP842 were cocoated with 100”
as §4

Row | Molecule | increase in the SDN-1 efficiency compared to the control without TSA (CK) [1] | increase in the SDN-1 efficiency compared to the control without TSA (CK) [2] | Total SDN-1 [3] | Bi-SDN-1 [3] | Mon-SDN-1 [3] | % SDN-1/IE [3] | % SDN-1/Event [3] | Total Events [3] | Bi-SDN-1 [4] | Mon-SDN-1 [4] | Total SDN-1 [4] | % SDN-1/IE [4] | % SDN-1/Event [4] | Total Event [4] | Bi-SDN-1 ([5]; T0 events) | Mon-SDN-1 ([5]; T0 events) | Total SDN-1 ([5]; T0 events) | % SDN-1/IE ([5]; per immature embryo initially used) | % SDN-1/Event ([5]; per regenerated T0 event) | Total Event ([5]; regenerated T0 events, co-bombarded with pGEP837 and pGEP842)
1 | CC(/C=C/C(=O)NO)=C\[C@@H](C)C(=O)c1ccc(N(C)C)cc1 [TSA, trichostatin A] | 61.5% | 354.5% |  |  |  |  |  |  |  |  |  |  |  |  |  |  |  |  |  | 
2 | B1 |  |  | 9 | 5 | 4 | 39.1% | 13.4% | 67 | 1 | 6 | 7 | 28.0% | 20.6% | 34 |  |  |  |  |  | 
3 | B2 |  |  | 34 | 20 | 14 | 22.7% | 14.3% | 237 | 2 | 0 | 2 | 9.1% | 13.3% | 15 | 1 | 0 | 1 | 2.1% | 6.3% | 16
4 | B3 |  |  | 6 | 5 | 1 | 19.4% | 12.0% | 50 |  |  |  |  |  |  |  |  |  |  |  | 
5 | B4 |  |  | 11 | 8 | 3 | 23.4% | 4.9% | 224 |  |  |  |  |  |  |  |  |  |  |  | 
